The supplement of paper PMC9876800

Test system: peptide library, one residue held at a place counted from the S/T acceptor
Experiment: relative phosphorylation of the sub-library (ratio to the mean residue at this position); higher = residue favoured
Details: human
Procedure, shortened: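 Spots on streptavidin membranes were phosphorimaged and quantified by densitometry to measure phosphorylation of biotinylated degenerate peptide sub-libraries by purified recombinant kinases, human or orthologue constructs. The reactions ran in 384-well plates for 90 min under kinase-specific conditions, with peptides at 50 μM and 50 μM ATP spiked with γ-32P-ATP. Relative sub-library phosphorylation is the ratio to the mean residue at that position.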

Chain of DYRK1B, construct: Full length (Q9Y463 whole entry, looked up): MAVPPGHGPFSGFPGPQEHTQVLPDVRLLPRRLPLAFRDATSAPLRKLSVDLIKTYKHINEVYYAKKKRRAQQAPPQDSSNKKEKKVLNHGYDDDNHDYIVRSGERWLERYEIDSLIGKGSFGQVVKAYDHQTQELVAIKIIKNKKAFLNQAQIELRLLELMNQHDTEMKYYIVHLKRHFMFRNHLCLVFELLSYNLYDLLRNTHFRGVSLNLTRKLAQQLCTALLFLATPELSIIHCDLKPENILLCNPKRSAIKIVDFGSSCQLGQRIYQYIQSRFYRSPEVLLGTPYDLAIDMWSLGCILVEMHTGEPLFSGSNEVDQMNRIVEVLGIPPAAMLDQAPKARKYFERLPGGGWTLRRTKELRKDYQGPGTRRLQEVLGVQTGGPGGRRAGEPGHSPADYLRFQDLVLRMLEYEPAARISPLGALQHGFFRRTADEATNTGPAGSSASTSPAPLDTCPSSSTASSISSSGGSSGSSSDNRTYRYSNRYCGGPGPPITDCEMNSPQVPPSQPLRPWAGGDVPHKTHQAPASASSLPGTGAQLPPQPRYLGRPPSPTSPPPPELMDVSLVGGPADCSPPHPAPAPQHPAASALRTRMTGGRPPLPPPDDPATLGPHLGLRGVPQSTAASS
Chain of MARK1, construct: Full length (Q9P0L2 whole entry, looked up): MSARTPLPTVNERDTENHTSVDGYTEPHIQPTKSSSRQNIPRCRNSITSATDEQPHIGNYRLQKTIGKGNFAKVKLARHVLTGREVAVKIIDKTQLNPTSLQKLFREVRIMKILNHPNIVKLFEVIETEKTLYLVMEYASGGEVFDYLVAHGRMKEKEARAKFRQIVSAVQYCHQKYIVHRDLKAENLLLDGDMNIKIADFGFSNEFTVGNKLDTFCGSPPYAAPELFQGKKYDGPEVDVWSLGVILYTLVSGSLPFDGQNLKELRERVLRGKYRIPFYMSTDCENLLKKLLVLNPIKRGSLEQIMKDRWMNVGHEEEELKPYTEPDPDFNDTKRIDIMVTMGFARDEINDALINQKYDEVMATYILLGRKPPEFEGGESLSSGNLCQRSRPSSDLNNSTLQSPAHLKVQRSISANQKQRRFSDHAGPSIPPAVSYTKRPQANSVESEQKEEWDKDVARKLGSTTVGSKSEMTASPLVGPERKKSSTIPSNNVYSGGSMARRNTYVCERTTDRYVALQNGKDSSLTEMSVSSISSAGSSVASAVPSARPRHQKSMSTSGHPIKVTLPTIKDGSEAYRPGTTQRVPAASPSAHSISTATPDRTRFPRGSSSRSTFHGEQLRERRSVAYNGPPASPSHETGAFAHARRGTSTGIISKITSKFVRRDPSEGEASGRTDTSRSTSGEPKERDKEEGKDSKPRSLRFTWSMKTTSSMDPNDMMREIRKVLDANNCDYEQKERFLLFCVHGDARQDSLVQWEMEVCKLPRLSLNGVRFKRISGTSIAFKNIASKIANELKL

MAP3K2, construct: Full length (from UniProt Q9Y2U5)
relative phosphorylation
Details | at +1 | at +2 | at +3 | at +4 | at -1 | at -2 | at -3 | at -4 | at -5
A fixed | 1.01 | 0.873 | 0.802 | 1.04 | 1.04 | 1.2 | 0.975 | 1.07 | 1.12
D fixed | 0.302 | 0.413 | 0.63 | 0.567 | 1.08 | 1.6 | 1.61 | 1.5 | 1.37
E fixed | 0.296 | 0.344 | 0.477 | 0.691 | 0.935 | 0.953 | 1.53 | 1.43 | 1.16
F fixed | 0.82 | 0.696 | 1.46 | 0.775 | 0.673 | 1.1 | 0.782 | 1.01 | 0.923
G fixed | 0.868 | 0.663 | 0.865 | 0.981 | 1.41 | 1.27 | 1.65 | 1.23 | 1.22
H fixed | 0.954 | 2.2 | 1.06 | 0.983 | 1.36 | 1.1 | 0.891 | 1.02 | 1.06
I fixed | 1.59 | 0.632 | 1.09 | 0.877 | 0.549 | 0.82 | 0.608 | 0.73 | 0.828
K fixed | 0.721 | 1.51 | 1.09 | 1.9 | 1.19 | 0.765 | 0.988 | 0.946 | 1.07
L fixed | 1.29 | 0.694 | 1.16 | 0.918 | 0.904 | 0.704 | 0.698 | 0.749 | 0.743
M fixed | 1.82 | 1.02 | 1.1 | 0.947 | 1.11 | 0.866 | 0.937 | 0.898 | 0.869
N fixed | 0.614 | 0.902 | 0.914 | 0.703 | 1.17 | 0.829 | 1.08 | 0.96 | 0.883
P fixed | 0.409 | 0.403 | 0.574 | 1.25 | 0.643 | 0.838 | 1.03 | 1.02 | 0.992
Q fixed | 1.02 | 1 | 0.905 | 1.12 | 1.11 | 0.853 | 0.817 | 0.793 | 0.751
R fixed | 1.09 | 1.94 | 1.32 | 1.68 | 1.39 | 0.757 | 1.18 | 0.978 | 0.95
V fixed | 1.46 | 0.828 | 0.856 | 0.816 | 0.726 | 0.979 | 0.698 | 0.849 | 1.02
W fixed | 1.81 | 0.986 | 1.51 | 0.909 | 0.662 | 0.919 | 0.747 | 0.952 | 1.08
Y fixed | 0.926 | 1.89 | 1.2 | 0.853 | 1.04 | 1.46 | 0.778 | 0.868 | 0.959
pThr fixed | 0.643 | 0.47 | 0.597 | 0.761 | 0.708 | 1.3 | 1.91 | 1.23 | 1.59
pTyr fixed | 0.42 | 0.412 | 0.645 | 0.546 | 1.08 | 2.07 | 1.3 | 1 | 1.21

MARK1, construct: Full length (from UniProt Q9P0L2)
relative phosphorylation
Details | at +1 | at +2 | at +3 | at +4 | at -1 | at -2 | at -3 | at -4 | at -5
A fixed | 0.647 | 0.684 | 0.599 | 0.352 | 1.02 | 1.84 | 0.723 | 0.974 | 0.972
D fixed | 0.508 | 0.722 | 3.18 | 0.56 | 0.625 | 0.335 | 0.358 | 0.782 | 0.715
E fixed | 0.778 | 1.09 | 0.947 | 0.373 | 0.616 | 0.261 | 0.408 | 0.696 | 0.695
F fixed | 0.81 | 0.764 | 0.898 | 0.713 | 0.635 | 1.48 | 0.885 | 1.05 | 1.18
G fixed | 0.497 | 0.392 | 0.379 | 0.421 | 2.38 | 0.96 | 0.556 | 1.07 | 0.906
H fixed | 0.787 | 1.08 | 1.44 | 0.589 | 0.783 | 1.35 | 1.36 | 1.25 | 0.858
I fixed | 1.2 | 0.885 | 0.565 | 2.73 | 0.557 | 0.503 | 0.555 | 0.654 | 0.974
K fixed | 0.837 | 0.57 | 0.587 | 0.483 | 1.72 | 0.994 | 2.18 | 1.38 | 1.26
L fixed | 1.42 | 1.13 | 0.877 | 4.86 | 0.751 | 0.491 | 0.642 | 0.747 | 1.51
M fixed | 2.28 | 1.12 | 0.774 | 1.4 | 0.963 | 0.76 | 0.883 | 0.967 | 1.27
N fixed | 0.949 | 0.968 | 2.63 | 0.679 | 1.1 | 0.576 | 0.571 | 0.865 | 0.739
P fixed | 0.28 | 0.59 | 0.171 | 0.382 | 1.13 | 0.428 | 0.716 | 0.856 | 0.775
Q fixed | 1.76 | 1.04 | 0.911 | 0.615 | 1.16 | 0.569 | 0.7 | 0.805 | 0.862
R fixed | 1.14 | 0.69 | 0.476 | 0.384 | 1.41 | 1.08 | 3.66 | 1.75 | 1.48
V fixed | 1.36 | 0.879 | 0.487 | 1.28 | 0.75 | 0.676 | 0.525 | 0.798 | 0.903
W fixed | 0.847 | 3.44 | 1.03 | 0.626 | 0.636 | 3.1 | 1.39 | 1.26 | 1.02
Y fixed | 0.903 | 0.958 | 1.05 | 0.555 | 0.766 | 1.6 | 0.884 | 1.09 | 0.877
pThr fixed | 1.58 | 1.08 | 0.457 | 0.348 | 0.378 | 0.43 | 0.445 | 0.692 | 0.614
pTyr fixed | 0.712 | 0.641 | 0.828 | 0.368 | 0.881 | 0.508 | 0.543 | 0.659 | 0.758

RAF1, construct: aa306-648 (from UniProt P04049)
relative phosphorylation
Details | at +1 | at +2 | at +3 | at +4 | at -1 | at -2 | at -3 | at -4 | at -5
A fixed | 0.533 | 0.747 | 0.856 | 0.786 | 1.02 | 0.816 | 0.961 | 0.949 | 1.05
D fixed | 0.619 | 0.926 | 0.751 | 0.848 | 1.47 | 0.702 | 0.845 | 1.36 | 1.19
E fixed | 0.992 | 0.886 | 0.697 | 0.864 | 0.969 | 0.718 | 0.898 | 1.24 | 1.29
F fixed | 1.25 | 0.618 | 1.36 | 1.23 | 0.587 | 1.25 | 0.8 | 0.698 | 0.914
G fixed | 0.719 | 1.13 | 1.05 | 0.823 | 1.07 | 0.675 | 1.06 | 1.09 | 0.997
H fixed | 0.672 | 1.08 | 1.06 | 1.13 | 1.52 | 1.29 | 1.08 | 1.13 | 1.18
I fixed | 1.66 | 1.03 | 0.787 | 0.958 | 0.647 | 1.27 | 0.755 | 0.65 | 0.731
K fixed | 0.544 | 1.15 | 0.73 | 0.985 | 1.14 | 0.9 | 1.36 | 1.11 | 1.35
L fixed | 2.37 | 1 | 1.19 | 1.05 | 0.852 | 0.939 | 1.22 | 0.793 | 0.848
M fixed | 1.78 | 0.846 | 0.963 | 0.966 | 1.09 | 1.02 | 1.07 | 0.835 | 0.788
N fixed | 0.692 | 1.32 | 0.999 | 1.08 | 1.29 | 0.784 | 0.832 | 1.27 | 1.13
P fixed | 0.281 | 1.23 | 0.912 | 0.983 | 0.735 | 1.1 | 0.797 | 0.772 | 1.03
Q fixed | 0.762 | 1.22 | 0.892 | 1.06 | 0.93 | 0.846 | 0.996 | 0.878 | 0.86
R fixed | 0.667 | 1.49 | 0.776 | 0.944 | 1.39 | 1.37 | 1.83 | 0.911 | 1.09
V fixed | 0.938 | 1.12 | 0.81 | 0.793 | 0.59 | 1.14 | 0.661 | 0.616 | 0.681
W fixed | 1.44 | 0.58 | 1.61 | 1.3 | 0.805 | 0.932 | 0.94 | 1.91 | 1.02
Y fixed | 1.08 | 0.631 | 1.56 | 1.19 | 0.891 | 1.26 | 0.89 | 0.791 | 0.855
pThr fixed | 1.05 | 1.62 | 0.758 | 0.819 | 0.77 | 1.06 | 1.1 | 1.24 | 0.992
pTyr fixed | 0.626 | 0.898 | 0.911 | 0.692 | 1.61 | 1.72 | 1.07 | 0.994 | 0.98

DYRK1B, construct: Full length (from UniProt Q9Y463)
relative phosphorylation
Details | at +1 | at +2 | at +3 | at +4 | at -1 | at -2 | at -3 | at -4 | at -5
A fixed | 0.436 | 0.893 | 0.7 | 0.79 | 1.08 | 2.23 | 0.812 | 0.901 | 0.902
D fixed | 0.147 | 0.891 | 0.762 | 0.879 | 0.607 | 0.261 | 0.56 | 1.58 | 0.658
E fixed | 0.161 | 0.8 | 0.932 | 0.829 | 0.626 | 0.28 | 0.445 | 0.719 | 0.554
F fixed | 0.182 | 1.26 | 1.04 | 1.68 | 0.605 | 0.346 | 0.407 | 0.645 | 0.816
G fixed | 0.957 | 0.824 | 1 | 0.925 | 1.14 | 0.889 | 1.33 | 0.933 | 1.15
H fixed | 0.249 | 1.16 | 1.37 | 1.11 | 0.926 | 0.456 | 0.748 | 0.837 | 1.23
I fixed | 0.239 | 1.26 | 0.987 | 1.14 | 0.495 | 0.727 | 0.32 | 0.607 | 0.956
K fixed | 0.469 | 0.653 | 0.621 | 0.808 | 1.6 | 0.623 | 0.983 | 1.22 | 1.5
L fixed | 0.222 | 1.28 | 1.25 | 1.1 | 0.747 | 0.926 | 0.491 | 0.756 | 0.785
M fixed | 0.71 | 1.06 | 1.22 | 1.32 | 1.04 | 0.729 | 0.513 | 0.718 | 0.721
N fixed | 0.21 | 1.02 | 0.991 | 0.902 | 0.86 | 0.806 | 0.712 | 0.806 | 0.903
P fixed | 11 | 0.972 | 2.32 | 0.904 | 1.66 | 2.48 | 1.04 | 1.01 | 0.988
Q fixed | 0.265 | 0.893 | 0.88 | 0.9 | 1.12 | 0.584 | 0.73 | 0.824 | 0.851
R fixed | 0.947 | 0.77 | 0.713 | 0.811 | 1.93 | 3.56 | 5.96 | 3.05 | 2.61
V fixed | 0.448 | 1.24 | 0.706 | 0.854 | 0.672 | 0.944 | 0.373 | 0.544 | 0.599
W fixed | 0.241 | 1.02 | 0.742 | 1.06 | 0.853 | 0.723 | 0.539 | 0.865 | 0.8
Y fixed | 0.161 | 1.01 | 0.77 | 0.994 | 1.02 | 0.43 | 1.03 | 0.987 | 0.983
pThr fixed | 0.476 | 1.01 | 0.551 | 0.927 | 0.454 | 0.594 | 0.577 | 0.891 | 0.802
pTyr fixed | 0.537 | 0.813 | 0.705 | 0.961 | 0.76 | 0.433 | 0.559 | 0.672 | 0.849
